Literature values as cited in patent publication US5550213A, “Inhibitors of urokinase plasminogen activator” (Rutgers, The State University of New Jersey, priority 1993, dated 1996).

Target: urokinase (UK) (Homo sapiens, UniProt P00749)
Conditions: from Turpeinen et al. (PSTI), Christensen et al. (PAI-2); serpin Ki not functionally comparable to reversible inhibitors; read-out: Ki (nM) against UK, values obtained from the literature

- Ki: < 0.01 nM
B1: PAI-2: placental type PA-inhibitor, a serpin, native inhibitor of urokinase (protein, UniProt P05120 1-415, looked up)
Plasminogen activator …: MEDLCVANTLFALNLFKHLAKASPTQNLFLSPWSISSTMAMVYMGSRGSTEDQMAKVLQFNEVGANAVTPMTPENFTSCGFMQQIQKGSYPDAILQAQAADKIHSSFRSLSSAINASTGNYLLESVNKLFGEKSASFREEYIRLCQKYYSSEPQAVDFLECAEEARKKINSWVKTQTKGKIPNLLPEGSVDGDTRMVLVNAVYFKGKWKTPFEKKLNGLYPFRVNSAQRTPVQMMYLREKLNIGYIEDLKAQILELPYAGDVSMFLLLPDEIADVSTGLELLESEITYDKLNKWTSKDKMAEDEVEVYIPQFKLEEHYELRSILRSMGMEDAFNKGRANFSGMSERNDLFLSEVFHQAMVDVNEEGTEAAAGTGGVMTGRTGHGGPQFVADHPFLFLIMHKITNCILFFGRFSSP
